This is an account of results in patent US20190127480A1 (Regeneron, published 2019).

The target in test [1] is T1, human CD3 on CD3-expressing cells (Jurkat, human T cells) (human, UniProt P07766 23-207; P04234 22-171).
T1 construct: On cells CD3 stands within the T cell receptor complex (also gamma and zeta chains); also called human CD3 expressing Jurkat cells
Nature of the test: FACS on Jurkat cells. Put shortly: (§1)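 Jurkat (human CD3), cynomolgus T or PSMA-expressing cells (2×10⁵/well) incubated 30 min at 4° C with serially diluted bispecific antibodies, then 30 min with PE anti-human Fcγ F(ab′)₂. Single-cell gated flow cytometry; EC₅₀ from 4-parameter non-linear regression.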

For test [2], the target named is T2, human PSMA on PSMA-expressing cells (human, UniProt Q04609 1-750). Nature of the test: cell-based or functional assay.
T2 sequence (Q04609 whole entry): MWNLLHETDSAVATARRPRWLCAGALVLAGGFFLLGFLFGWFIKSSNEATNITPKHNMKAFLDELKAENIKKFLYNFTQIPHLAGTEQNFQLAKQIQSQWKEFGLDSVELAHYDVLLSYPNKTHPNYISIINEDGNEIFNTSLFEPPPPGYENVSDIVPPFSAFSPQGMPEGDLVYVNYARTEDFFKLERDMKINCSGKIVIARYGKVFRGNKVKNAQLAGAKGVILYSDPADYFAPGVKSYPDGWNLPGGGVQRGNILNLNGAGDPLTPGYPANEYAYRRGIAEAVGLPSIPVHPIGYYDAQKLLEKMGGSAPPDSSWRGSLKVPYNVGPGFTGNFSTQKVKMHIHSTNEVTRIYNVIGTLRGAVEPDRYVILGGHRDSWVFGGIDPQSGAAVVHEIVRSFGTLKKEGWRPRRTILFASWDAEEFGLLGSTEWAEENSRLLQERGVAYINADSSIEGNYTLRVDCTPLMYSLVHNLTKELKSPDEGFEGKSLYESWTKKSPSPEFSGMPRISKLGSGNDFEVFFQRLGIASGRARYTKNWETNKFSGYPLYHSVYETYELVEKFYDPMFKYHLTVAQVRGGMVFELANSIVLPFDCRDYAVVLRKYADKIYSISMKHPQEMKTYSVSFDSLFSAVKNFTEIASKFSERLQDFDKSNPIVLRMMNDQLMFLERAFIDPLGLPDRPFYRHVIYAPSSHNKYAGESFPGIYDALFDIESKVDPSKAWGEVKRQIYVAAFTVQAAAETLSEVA
Test [3] addresses T1, human CD3 on CD3-expressing cells …. Nature of the test: cell-based or functional assay.
Test [4] has as its target T2, human PSMA on PSMA-expressing cells. Nature of the test: FACS on B16F10.9/PSMA cells. Put shortly: as §1
The target in test [5] is T3, soluble heterodimeric hCD3ε/δ.mFc protein (human).
T3 construct: also called soluble human CD3; soluble heterodimeric CD3 protein
T3 chain 1: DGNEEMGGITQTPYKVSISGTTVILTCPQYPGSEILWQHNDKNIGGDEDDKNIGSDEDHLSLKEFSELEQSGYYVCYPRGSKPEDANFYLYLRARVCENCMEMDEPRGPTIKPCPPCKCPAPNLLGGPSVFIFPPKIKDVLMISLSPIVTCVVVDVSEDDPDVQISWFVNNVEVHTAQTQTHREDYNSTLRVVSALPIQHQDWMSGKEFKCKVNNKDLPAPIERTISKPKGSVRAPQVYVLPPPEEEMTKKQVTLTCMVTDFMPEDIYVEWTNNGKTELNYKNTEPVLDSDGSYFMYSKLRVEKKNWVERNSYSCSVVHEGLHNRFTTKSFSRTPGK
T3 chain 2: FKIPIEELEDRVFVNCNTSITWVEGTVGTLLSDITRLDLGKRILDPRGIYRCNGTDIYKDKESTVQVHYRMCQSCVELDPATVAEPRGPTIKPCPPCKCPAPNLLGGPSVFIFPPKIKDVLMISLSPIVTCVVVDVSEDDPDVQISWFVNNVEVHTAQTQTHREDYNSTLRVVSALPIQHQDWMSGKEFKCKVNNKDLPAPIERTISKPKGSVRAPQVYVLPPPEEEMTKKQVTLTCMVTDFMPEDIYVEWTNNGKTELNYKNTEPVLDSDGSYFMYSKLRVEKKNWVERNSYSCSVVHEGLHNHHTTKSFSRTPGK
Nature of the test: SPR MASS-1, 37 C, antigen-capture format. As for the experimental part: Measurements were conducted on a Sierra Sensors MASS-1 instrument.
In the antigen-capture format, the MASS-1 high-density amine sensor surface was derivatized with a goat anti-mouse IgG2a polyclonal antibody (Southern Biotech). Soluble heterodimeric CD3 protein was captured and the respective antibodies were injected over the captured antigen.
Kinetic association (kₐ) and dissociation (kd) rate constants were determined by processing and fitting the data to a 1:1 binding model using MASS-1 AnalyserR2 curve fitting software. Binding dissociation equilibrium constants (KD) and dissociative half-lives (t_{1/2}) were calculated from the kinetic rate constants as: KD (M)=kd/kₐ; and t_{1/2} (min)=(ln 2/(60*kd).

The target of test [6] is T4, human PSMA expressed with an N-terminal hexahistidine tag (6h.hPSMA, R&D) (human, UniProt Q04609 44-750).
T4 construct: Bought soluble protein; also called soluble human PSMA; human PSMA protein
T4 sequence (Q04609 other isoform, or with tags, fused parts or gaps limits assumed): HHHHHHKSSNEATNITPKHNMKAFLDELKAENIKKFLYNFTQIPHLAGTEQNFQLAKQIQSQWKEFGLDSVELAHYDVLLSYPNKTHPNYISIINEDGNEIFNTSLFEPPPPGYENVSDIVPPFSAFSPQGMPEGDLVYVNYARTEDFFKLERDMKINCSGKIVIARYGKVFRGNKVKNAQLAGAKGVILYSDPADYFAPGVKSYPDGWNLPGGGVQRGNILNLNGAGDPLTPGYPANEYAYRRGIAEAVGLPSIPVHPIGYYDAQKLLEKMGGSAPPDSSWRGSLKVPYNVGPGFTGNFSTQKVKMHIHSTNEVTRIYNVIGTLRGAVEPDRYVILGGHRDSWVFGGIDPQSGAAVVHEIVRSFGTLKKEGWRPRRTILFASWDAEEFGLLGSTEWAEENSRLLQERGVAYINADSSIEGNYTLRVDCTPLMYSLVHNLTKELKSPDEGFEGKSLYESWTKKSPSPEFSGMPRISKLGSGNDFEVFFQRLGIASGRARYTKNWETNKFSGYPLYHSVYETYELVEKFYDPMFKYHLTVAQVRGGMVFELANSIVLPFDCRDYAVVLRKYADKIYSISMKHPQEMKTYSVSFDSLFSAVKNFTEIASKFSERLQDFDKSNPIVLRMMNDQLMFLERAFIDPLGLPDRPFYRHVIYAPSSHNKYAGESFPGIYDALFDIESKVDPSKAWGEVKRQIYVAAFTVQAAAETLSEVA
Nature of the test: SPR Biacore T-200, 37 C, antibody-capture (anti-mouse Fc), 6h.hPSMA as analyte. The method, then: Briefly, a CM5 Biacore™ sensor surface was derivatized via amine coupling with a monoclonal mouse anti-human Fc antibody (GE, # BR-1008-39) or monoclonal goat anti-mouse Fc antibody (GE, # BR-1008-38) to capture purified anti-PSMA antibodies. Binding studies were performed in HBSP++ buffer composed of 0.01M HEPES, 0.15M NaCl, 2 mM Ca²⁺, 2 mM Mg²⁺, 0.05% v/v Surfactant P20, pH7.4. Varying concentrations of human PSMA expressed with an N-terminal hexahistidine tag (6h.hPSMA, R&D) prepared in HBSP++ running buffer (ranging from 50 to 0.78 nM, 4-fold dilutions) were injected over the anti-PSMA antibody captured surface at a flow rate of 30 μL/minute. Antibody-reagent association was monitored for 2 minutes while dissociation in HBSP++ running buffer was monitored for 8 minutes.
Kinetic association (kₐ) and dissociation (kd) rate constants were determined by fitting the real-time sensorgrams to a 1:1 binding model using Scrubber 2.0c curve fitting software. Binding dissociation equilibrium constants (KD) and dissociative half-lives (t½) were calculated from the kinetic rate constants as: KD (M)=kd/kₐ; and t_{1/2} (min)=(ln 2/(60*kd).

Test [7] addresses human CD3 expressed on cells (Jurkat cells; human T-cells of PBMC) (human, UniProt P09693 23-182; P20963 22-164). Nature of the test: cell-based or functional assay.
Test [8] addresses T5, cynomolgus monkey CD3 expressed on monkey T-cells (PBMCs) (cynomolgus monkey, UniProt Q95LI5 22-198; Q95LI8 22-171).
T5 construct: whole, on cells; Native CD3 on monkey T cells; gamma and zeta chains are also part of CD3 on cells; also called monkey PBMCs; mfPBMC
Nature of the test: FACS titration on monkey PBMCs, gated on CD2+CD4+ T cells. The method, then: FACS data was acquired using the following protocol: Cells at 2×10⁵ per well were incubated with serially diluted antibodies for 30 min on ice. Post incubation, cells were washed and secondary antibodies were added and incubated for an additional 30 minutes. After incubation, cells were washed, re-suspended in cold PBS containing 1% BSA and analyzed by flow cytometry. CD4+ monkey T cells were gated by side and forward scatters, and on the CD2+CD4+CD20− population. The EC₅₀s for cell binding titration were calculated using a 4-parameter non-linear regression analysis in GraphPad Prism.

For test [9], the target named is T1, human CD3 on CD3-expressing cells …. Nature of the test: FACS titration of Jurkat cells.
In test [10] the target is T6, cynomolgus CD3 on cynomolgus T cells (cynomolgus, UniProt Q95LI5 22-198; Q95LI8 22-171).
T6 construct: whole, on cells; also called Cyno T-cells; monkey T-cells
T6 sequence (Q95LI5 22-198, form in doubt, chain 1 of 2): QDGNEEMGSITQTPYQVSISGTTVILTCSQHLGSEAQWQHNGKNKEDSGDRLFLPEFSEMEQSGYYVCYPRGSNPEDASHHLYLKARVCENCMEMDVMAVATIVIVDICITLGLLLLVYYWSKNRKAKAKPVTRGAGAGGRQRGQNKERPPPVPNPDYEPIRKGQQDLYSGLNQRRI
T6 sequence (Q95LI8 22-171, form in doubt, chain 2 of 2): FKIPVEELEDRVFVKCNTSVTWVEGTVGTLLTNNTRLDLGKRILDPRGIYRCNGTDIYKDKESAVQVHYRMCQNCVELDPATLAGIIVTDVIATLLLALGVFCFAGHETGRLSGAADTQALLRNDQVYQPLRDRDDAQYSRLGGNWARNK
Nature of the test: FACS titration of cynomolgus T cells.

The target of test [11] is T5, cynomolgus monkey CD3 expressed on …. Nature of the test: cell-based or functional assay.

Residue numbers refer to the chain shown, from its start. Names and notes keep the numbering of the source.

T5 sequence (Q95LI5 22-198, chain 1 of 2): as the sequence (Q95LI5 22-198, form in doubt, chain 1 of 2) above
T5 sequence (Q95LI8 22-171, chain 2 of 2): as the sequence (Q95LI8 22-171, form in doubt, chain 2 of 2) above
Sequence of human CD3 expressed on cells (Jurkat cells; human T-cells of PBMC) (chain, as listed by the source, chain 1 of 4): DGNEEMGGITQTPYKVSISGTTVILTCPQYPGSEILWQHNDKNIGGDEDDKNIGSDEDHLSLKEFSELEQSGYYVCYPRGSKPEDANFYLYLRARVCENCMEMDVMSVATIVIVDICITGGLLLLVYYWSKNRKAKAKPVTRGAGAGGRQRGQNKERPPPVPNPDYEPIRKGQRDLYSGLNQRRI
Sequence of human CD3 expressed on cells (Jurkat cells; human T-cells of PBMC) (chain, as listed by the source, chain 2 of 4): as the sequence (Q95LI8 22-171, form in doubt, chain 2 of 2) above, with V5I, K15N, V20I, T32S, N33D, N34I, A64T, N74S, L83V, R141H counted along it
Sequence of human CD3 expressed on cells (Jurkat cells; human T-cells of PBMC) (P09693 23-182, chain 3 of 4): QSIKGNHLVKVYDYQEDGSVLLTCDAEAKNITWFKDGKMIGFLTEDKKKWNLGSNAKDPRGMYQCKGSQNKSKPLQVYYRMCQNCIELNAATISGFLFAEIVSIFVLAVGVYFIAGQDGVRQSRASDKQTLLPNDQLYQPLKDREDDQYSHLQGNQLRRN
Sequence of human CD3 expressed on cells (Jurkat cells; human T-cells of PBMC) (P20963 22-164, chain 4 of 4): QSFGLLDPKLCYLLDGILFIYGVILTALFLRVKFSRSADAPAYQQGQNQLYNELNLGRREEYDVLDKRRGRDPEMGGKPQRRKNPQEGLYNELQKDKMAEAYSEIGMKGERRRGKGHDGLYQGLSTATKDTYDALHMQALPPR

B1: BSPSMA/CD3-004 (bispecific antibody, IgG4, V domains shown)
VH 1: QVQLVESGGGVVQPGRSLRLSCAASGFTFSSYGMHWVRQAPGKGLEWVAVISYAGNNKYYADSVKGRFTVSRDNSKKTLYLQMNSLRSEDTAVYYCAKDSYYDFLTDPDVLDIWGQGTMVTVSS
VH 2: EVQLVESGGGLVQPGRSLRLSCAASGFTFDDYSMHWVRQAPGKGLEWVSGISWNSGSIGYADSVKGRFTISRDNAKNSLYLQMNSLRAEDTALYYCAKDGSGYGKFYYYGMDVWGQGTTVTVSS
VL: DIQMTQSPSSLSASVGDSVTITCRASQSINNYLNWYQQKPGKAPKLLIYTASSLLSGVPSRFSGSGSGTDFTLTISGLHPEDFATYFCQQSFSTPPITFGQGTRLDIK
notes: modified (chimeric) IgG4 Fc domain; also called PSMA-VH-11810 x CD3-VH-G5
What is called EC50 is the concentration that produces a half-maximal response. B1 yielded an EC50 in test [1] of roughly 1000 nM. For the same molecule, in test [2], the “22RV1 Cell depletion EC50” value is 0.00631 nM, the “C4-2 Cell depletion EC50” value stood at 0.0215 nM and the “TrampC2.PSMA Cell depletion EC50” value came out at 0.0115 nM. The “T cell activation EC50” value in test [3] is 0.0134 nM. The same molecule had an EC50 in test [4] of 1.31 nM. Besides, the binding result in test [5] is on record as “no binding”.

B2: H1M11900N (antibody, mouse IgG1, V domains shown)
VH: EVQLVESGGALVQTGGSLRLSCVASGFTFSNYWMSWVRQSPGKGLQWVASIKKDGSDEDYVDSVKGRFTISRDNAENSLYLQMTSLRIEDTAVYYCARFISAVGVDWGQGALVTVSS
VL: B1 VL
notes: human variable / mouse constant region (H1M: mouse IgG1 Fc)
Broadly, the Kd is the constant that tells how readily two partners part at equilibrium. For orientation: koff means the rate constant with which the complex falls apart. Usually kon stands for the rate constant with which the complex forms. Regarding B2, in test [6], the Kd is 25.8 nM, the koff worked out at 0.00406 s⁻¹, the kon was found to be 157000 M⁻¹ s⁻¹ and the “t1/2” value was 2.8 min.

B3: H2M3563N (antibody, mouse IgG2, V domains shown)
VH: B1 VH 2 with Q3H, S33T, G50D, I70V, A88G, G100M, K105H, F106Y, Y107G, Y108K
VL: DIQMTQSPSSLSASVGDRVTITCRASQSIRSYLNWYQQKPGKVPKLLIYAASSLQSGVPSRFSGSGSGTDFTLTINSLQPDDFATYYCQQTYSNPPITFGQGTRLEIK
notes: H2M: human variable regions, mouse IgG2 Fc
Regarding B3, the “U937 Cytotoxicity Human T-cells” value in [7] turned out to be 40.5 pM. In addition, the EC50 in test [8] came out at 0.165 nM.

B4: CD3-VH-P (antibody, V domains shown)
VH: B1 VH 2 with A23V, I58K, G59D, D99Y, Y108H, M111L
VL: B1 VL
notes: also called CD3 antibody designated CD3-VH-P
On to B4, for which the EC50 in test [9] and in test [10] was 1 to 40 nM throughout.

B5: BSPSMA/CD3-200 (bispecific antibody, IgG4, V domains shown)
VH 1: B1 VH 1
VH 2: B1 VH 2 with S33A, K105Y
VL: B1 VL
notes: modified (chimeric) IgG4 Fc domain; also called PSMA-VH-11810 x CD3-VH-G2
With B5, the binding result in [1] and in [5] was “no binding” throughout. Besides, the midpoint of the response in test [4], the EC50, lay at 1.88 nM.

B6: BSPSMA/CD3-1800 (bispecific antibody, IgG4, V domains shown)
VH 1: B1 VH 1
VH 2: B1 VH 2 with M111L
VL: B1 VL
notes: modified (chimeric) IgG4 Fc domain; also called PSMA-VH-11810 x CD3-VH-G18
For the molecule B6, the EC50 was determined as 126 nM in [1] and 2.16 nM in test [4]. The binding result in [5] is listed as “no binding”.

B7: BSPSMA/CD3-300 (bispecific antibody, IgG4, V domains shown)
VH 1: B1 VH 1
VH 2: B1 VH 2 with K105Y
VL: B1 VL
notes: modified (chimeric) IgG4 Fc domain; also called PSMA-VH-11810 x CD3-VH-G3
On to B7, for which the binding result in test [1] and in test [5] was “no binding” throughout. Besides, the “T cell activation EC50” value in test [3] was 0.0185 nM. Further, the response in [4] was half-maximal at 1.9 nM (EC50).

B8: BSPSMA/CD3-400 (bispecific antibody, IgG4, V domains shown)
VH 1: B1 VH 1
VH 2: B1 VH 2 with S33A
VL: B1 VL
notes: modified (chimeric) IgG4 Fc domain; also called PSMA-VH-11810 x CD3-VH-G4
Consider B8, for which the binding result in [1] and in [5] was “no binding” throughout. Further, the 50% effective concentration (EC50) in test [4] was 1.72 nM.

B9: H2M3547N (antibody, mouse IgG2, V domains shown)
VH: EAQLVESGGGLVQPGRSLRLSCTTSGFTFDDYTMHWVRQAPGKGLEWISDISWNGGTKGYADSVKGRFTISRDNAKNSLYLQMDSLRGEDTALYYCVKDKSGYGHFYFGLDVWGQGTTVTVSS
VL: DIQMTQSPSSLTASVGDRVTFTCRASQSISRHLSWYQQKPGKAPKLLIYAASSLESGVPSRFSGSGSGTDFTLTISSLHPEDFATYYCQQSYSNPPITFGQGTRLEIK
notes: as for B3
Take B9: the “U937 Cytotoxicity Human T-cells” value in test [7] was 31.7 pM. In test [8], the response was half-maximal at 0.112 nM (EC50).

B10: H1H2712N (antibody, human IgG1, V domains shown)
VH: EVQLVESGGGLVQPGGSLRLSCAATGFTFDDFTMHWVRQAPGKGLEWVSGISWNSGSIGYVDSVKGRFTISRDNAKNSLYLQMNSLRAEDTALYYCAKDNSGYGYYYYGMDVWGQGTTVTVSS
VL: EIVMTQSPATLSVSPGERATLSCRASHSVSRNSAWYQQKPGQAPRLLIYGASTRATGIPARFSGSGSGTEFTLTISSLQSEDFAIYYCQQYNNWPLTFGGGTKVEIK
notes: H1H: human IgG1 Fc
As for B10, the “EC50 [M] mfPBMC Proliferation” value in test [11] amounted to 2.72e-12 M. Also, in test [8], the EC50 stood at 2.29 nM.
